In IntAct's records for PubMed 24704786:

B1: Interferon alpha/beta receptor 1 (Homo sapiens), P17181-1 (parent)
chain: MMVVLLGATTLVLVAVAPWVLSAAAGGKNLKSPQKVEVDIIDDNFILRWNRSDESVGNVTFSFDYQKTGMDNWIKLSGCQNITSTKCNFSSLKLNVYEEIKLRIRAEKENTSSWYEVDSFTPFRKAQIGPPEVHLEAEDKAIVIHISPGTKDSVMWALDGLSFTYSLVIWKNSSGVEERIENIYSRHKIYKLSPETTYCLKVKAALLTSWKIGVYSPVHCIKTTVENELPPPENIEVSVQNQNYVLKWDYTYANMTFQVQWLHAFLKRNPGNHLYKWKQIPDCENVKTTQCVFPQNVFQKGIYLLRVQASDGNNTSFWSEEIKFDTEIQAFLLPPVFNIRSLSDSFHIYIGAPKQSGNTPVIQDYPLIYEIIFWENTSNAERKIIEKKTDVTVPNLKPLTVYCVKARAHTMDEKLNKSSVFSDAVCEKTKPGNTSKIWLIVGICIALFALPFVIYAAKVFLRCINYVFFPSLKPSSSIDEYFSEQPLKNLLLSTSEEQIEKCFIIENISTIATVEETNQTDEDHKKYSSQTSQDSGNYSNEDESESKTSEELQQDFV

Variants of: B1
Conditions: with tyk2_human TYK2, P29597
Sequence of tyk2_human TYK2, P29597 (P29597 whole entry): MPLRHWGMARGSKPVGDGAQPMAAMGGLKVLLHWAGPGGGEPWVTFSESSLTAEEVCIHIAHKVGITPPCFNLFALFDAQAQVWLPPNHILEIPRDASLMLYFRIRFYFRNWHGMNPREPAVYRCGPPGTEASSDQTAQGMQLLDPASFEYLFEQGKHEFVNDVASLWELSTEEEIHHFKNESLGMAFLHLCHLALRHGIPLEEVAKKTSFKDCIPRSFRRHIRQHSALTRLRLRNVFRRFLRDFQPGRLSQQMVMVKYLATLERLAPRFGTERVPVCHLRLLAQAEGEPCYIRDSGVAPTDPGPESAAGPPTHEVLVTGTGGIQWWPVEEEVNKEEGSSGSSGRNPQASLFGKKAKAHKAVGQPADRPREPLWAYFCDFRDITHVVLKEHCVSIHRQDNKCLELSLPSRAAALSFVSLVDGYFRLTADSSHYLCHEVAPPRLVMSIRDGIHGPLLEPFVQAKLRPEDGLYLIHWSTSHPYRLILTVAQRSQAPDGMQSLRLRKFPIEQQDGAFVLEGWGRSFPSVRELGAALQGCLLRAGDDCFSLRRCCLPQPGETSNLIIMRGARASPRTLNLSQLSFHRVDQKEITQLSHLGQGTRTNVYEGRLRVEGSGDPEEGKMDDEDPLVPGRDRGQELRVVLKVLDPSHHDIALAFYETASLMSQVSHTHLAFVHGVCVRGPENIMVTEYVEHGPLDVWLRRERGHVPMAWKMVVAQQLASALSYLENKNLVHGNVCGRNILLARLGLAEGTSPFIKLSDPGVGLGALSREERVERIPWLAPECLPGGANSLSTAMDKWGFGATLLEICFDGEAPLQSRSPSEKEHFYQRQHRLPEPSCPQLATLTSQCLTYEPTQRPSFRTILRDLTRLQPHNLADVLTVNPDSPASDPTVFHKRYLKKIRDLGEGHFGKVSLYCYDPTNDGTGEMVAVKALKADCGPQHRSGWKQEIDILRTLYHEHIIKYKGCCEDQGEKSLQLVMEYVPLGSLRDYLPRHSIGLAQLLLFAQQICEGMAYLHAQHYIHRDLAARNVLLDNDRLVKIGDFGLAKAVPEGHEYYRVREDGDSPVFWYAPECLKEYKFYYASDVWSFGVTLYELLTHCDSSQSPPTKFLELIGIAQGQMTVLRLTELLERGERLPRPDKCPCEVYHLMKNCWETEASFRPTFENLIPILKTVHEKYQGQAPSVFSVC

| Variant | effect of a mutation on the interaction |
| --- | --- |
| MMVVLLGATTLVLVAVAPWVLSAAAGGKNLKSPQKVEVDIIDDNFILRWNRSDESVGNVTFSFDYQKTGMDNWIKLSGCQNITSTKCNFSSLKLNVYEEIKLRIRAEKENTSSWYEVDSFTPFRKAQIGPPEVHLEAEDKAIVIHISPGTKDSVMWALDGLSFTYSLVIWKNSSGVEERIENIYSRHKIYKLSPETTYCLKVKAALLTSWKIGVYSPVHCIKTTVENELPPPENIEVSVQNQNYVLKWDYTYANMTFQVQWLHAFLKRNPGNHLYKWKQIPDCENVKTTQCVFPQNVFQKGIYLLRVQASDGNNTSFWSEEIKFDTEIQAFLLPPVFNIRSLSDSFHIYIGAPKQSGNTPVIQDYPLIYEIIFWENTSNAERKIIEKKTDVTVPNLKPLTVYCVKARAHTMDEKLNKSSVFSDAVCEKTKPGNTSKIWLIVGICIALFALPFVIYAAKVFLRCINYVFFPSLKPSSSIDEYFSEQPLKNLLLSTSEAQIEKCFIIENISTIATVEETNQTDEDHKKYSSQTSQDSGNYSNEDESESKTSEELQQDFV [E497A] | disrupting interaction strength |
